Sequences and labels used below:
B1: KB_C10 (scFv, V domains shown)
VH: EVQLVESGGGLVRPGGSLRLSCAASGFTFSSYAMSWVRQAPGKGLEWVSAISGSGGSTYYADSVKGRFTISRDNTKNSLYLQMTSLRADDTAFYYCVKDFGPGYGTGWFDYWGPGTLVTVSS
VL: AVNWYQQLPGKAPKLLIYAAGPCPRILMRCKQDSDCLAGCVCGPNGFCGADSGVSDRFSGSKSGTSASLAITGLQAEDEGDYYCAAWDDSLNGLVFGGGTKVTVLG
B2: KB_A12_B-gal_E04 (scFv, V domains shown)
VH: B1 VH
VL: AVNWYQQLPGKAPKLLIYAAGRCLATTSIRRPCKQDSDCLAGCVCGPNGFCGANSGVSDRFSAAKSGTSASLAINGLRSEDEADYYCAAWDDSLNGYVFGTGTKLTVLG
B3: KB_A12_B-gal_F09 (scFv, V domains shown)
VH: B1 VH
VL: B2 VL with L24I, T27S, S28H, P32H
B4: KB_A12_B-gal_H02 (scFv, V domains shown)
VH: B1 VH
VL: B2 VL with L24E, A25Q, T27S, S28V, P32H
B5: KB_A12_B-gal_E05 (scFv, V domains shown)
VH: B1 VH
VL: B2 VL with L24R, A25E, T27S, I29L
B6: KB_A12_B-gal_F02 (scFv, V domains shown)
VH: B1 VH
VL: B2 VL with L24R, A25T, T27S, S28T, P32R
B7: KB_A12_B-gal_F07 (scFv, V domains shown)
VH: B1 VH
VL: B2 VL with L24R, A25T, T27A, S28N, I29V, P32H
B8: KB_A12_B-gal_H07 (scFv, V domains shown)
VH: B1 VH
VL: B2 VL with L24T, A25Q, T27A, S28L, P32R
B9: KB_A12_B-gal_H03 (scFv, V domains shown)
VH: B1 VH
VL: B2 VL with L24N, A25Q, T27M
B10: KB_A12_B-gal_G05 (scFv, V domains shown)
VH: B1 VH
VL: B2 VL with A25D, T27V, S28N, I29L, P32R
B11: KB_A12_B-gal_F03 (scFv, V domains shown)
VH: B1 VH
VL: B2 VL with P32H
B12: KB_A12_B-gal_F11 (scFv, V domains shown)
VH: B1 VH
VL: B2 VL with L24H, A25E, T27A, S28Q, P32R
B13: E08 (KnotBody with EET 5-3 framing) (scFv, V domains shown)
VH: B1 VH
VL: AVNWYQQLPGKAPKLLIYAAGGCGPNGFCGSGSDGGVCPRILMRCKQDSDCLAGCGIQSGIPERFSGSKSGTSASLAISGLRSEDEADYYCAAWDDNLSGYVFGTGTKLTVLG
B14: F01 (KnotBody with EET 5-3 framing) (scFv, V domains shown)
VH: B1 VH
VL: YLNWYQQKPGKAPKLLIDAAGECGPNGFCGSGSDGGVCPRINMRCKQDSDCLAGCGRDSGVPSRFSGSGSGTDFTLTISSLQPEDFATYYCQQSYSTPWTFGQGTKVEIKR
B15: E01 (KnotBody with EET 5-3 framing) (scFv, V domains shown)
VH: B1 VH
VL: B13 VL with Q58H, I61V, P62S, E63D, G67D, R82Q, N97S, S99N
B16: C09 (KnotBody with EET 5-3 framing) (scFv, V domains shown)
VH: B1 VH
VL: SEAPRQRVTITCGGKRCGPNGFCGSGSDGGVCPRILMRCKQDSDCLAGCTSNWYQQKPGQAPVLVVQDDSVRPSGIPERFSGSNSGNTATLTISRVEAGDGADYYCQVWDISSDLGVFGGGTKLTVLG
B17: E03 (KnotBody with EET 5-3 framing) (scFv, V domains shown)
VH: B1 VH
VL: AVNWYQQLPGKAPKLLIYAAGGCGPNGFCGSGSDGGVCPRILMRCKQDSDCLAGCGRNSGIPERFSGSKSGHTATLTISRVEAGDEADYYCQVWDSSSDHVLFGGGTKLTVLG
B18: F07 (KnotBody with EET 5-3 framing) (scFv, V domains shown)
VH: B1 VH
VL: B13 VL with I57G, I61V, E63D, G80R, R82Q, N97S, S99N, G100A, L109V
B19: F03 (KnotBody with EET 5-3 framing) (scFv, V domains shown)
VH: B1 VH
VL: B13 VL with K11R, S33G, I57A, Q58H, N97S, S99N, Y101W, T105G, L109V
B20: E09 (KnotBody with EET 5-3 framing) (scFv, V domains shown)
VH: B1 VH
VL: B13 VL with I57T, N97S, S99R, G100A, K108Q
B21: E05 (KnotBody with EET 5-3 framing) (scFv, V domains shown)
VH: B1 VH
VL: B13 VL with I57A, R82Q, D88H, N97S, S99N, L109V
B22: G11 (KnotBody with EET 5-3 framing) (scFv, V domains shown)
VH: B1 VH
VL: AVNWYQQLPGKAPKLLIYAAGGCGPNGFCGSGSDGGVCPRILMRCKQDSDCLAGCGQSSGVSDRFSGSKSGTSATLDITGLQTGDEADYYCGTWDNSLSVGVFGGGTKVTVLG

Positions count from the first letter of the chain named.

One test concerns the target trypsin. As to the kind of experiment: monoclonal phage TRF.
On to B1, for which the Tryspin binding signal (FU) is 119000 FU.

The target in another test is β-galactosidase. As to the kind of experiment: monoclonal phage TRF.
β-galactosidase, sequence (P00722 2-1024): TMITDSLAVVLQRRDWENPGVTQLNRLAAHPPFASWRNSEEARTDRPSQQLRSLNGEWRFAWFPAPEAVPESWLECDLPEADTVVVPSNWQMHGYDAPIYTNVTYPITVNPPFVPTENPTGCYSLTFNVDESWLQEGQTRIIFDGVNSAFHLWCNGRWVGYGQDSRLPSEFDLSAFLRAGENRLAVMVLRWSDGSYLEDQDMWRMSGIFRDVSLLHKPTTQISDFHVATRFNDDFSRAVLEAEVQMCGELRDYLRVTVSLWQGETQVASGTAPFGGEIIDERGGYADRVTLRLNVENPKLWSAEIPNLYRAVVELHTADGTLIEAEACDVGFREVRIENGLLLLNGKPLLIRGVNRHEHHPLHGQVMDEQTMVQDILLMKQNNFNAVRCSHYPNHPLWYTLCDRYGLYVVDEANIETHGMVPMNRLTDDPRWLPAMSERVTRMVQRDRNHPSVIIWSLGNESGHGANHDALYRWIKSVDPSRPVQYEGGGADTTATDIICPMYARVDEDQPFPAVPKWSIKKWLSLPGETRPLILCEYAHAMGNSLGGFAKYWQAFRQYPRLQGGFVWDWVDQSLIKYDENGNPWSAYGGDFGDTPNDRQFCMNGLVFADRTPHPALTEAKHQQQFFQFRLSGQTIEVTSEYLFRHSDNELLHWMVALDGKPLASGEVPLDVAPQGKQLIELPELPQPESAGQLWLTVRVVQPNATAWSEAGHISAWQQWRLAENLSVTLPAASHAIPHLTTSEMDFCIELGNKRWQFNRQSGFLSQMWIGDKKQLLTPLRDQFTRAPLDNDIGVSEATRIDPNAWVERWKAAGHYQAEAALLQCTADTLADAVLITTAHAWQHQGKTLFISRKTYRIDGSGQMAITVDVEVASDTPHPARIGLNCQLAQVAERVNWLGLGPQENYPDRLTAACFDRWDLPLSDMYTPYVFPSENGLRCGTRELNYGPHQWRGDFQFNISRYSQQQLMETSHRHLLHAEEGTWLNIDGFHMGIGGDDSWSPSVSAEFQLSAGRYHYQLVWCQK
For B2, the TRF signal came to 523000.
Same read-out and setting: in the case of B3 it was 258000; in that of B4, 501000.
B5 registered a TRF signal of 312000.
On to B6, for which the TRF signal came to 476000.
On the same count and under the same terms, in the case of B7 it was 246000; in that of B8, 62000; in that of B9, 518000.
In turn, B10 gave a TRF signal of 529000.
Same read-out and setting: in the case of B11 it was 289000; in that of B12, 531000.

The target of a further test is trypsin. Kind of test: Fab TRF, 10 ug/mL Fab.
Turning to B1, the TRF signal was found to be 238000.

A further test addresses trypsin. As to the kind of experiment: Fab TRF, 0.6 ug/mL Fab.
Turning to B1, the TRF signal was found to be 41700.

The next test concerns the target trypsin. As to the kind of experiment: Fab TRF, 2.4 ug/mL Fab.
In turn, B1 displayed a TRF signal of 146000.

Another test has as its target trypsin. As to the kind of experiment: monoclonal phage ELISA.
Turning to B13, the ELISA signal is 121000.
On the same count and under the same terms, in the case of B14 it was 102000; in that of B15, 128000.
Still for that read-out and setting: in the case of B16 it was 9820; in that of B17, 82500; in that of B18, 72800.
Same read-out and setting: under B19 stands 68000.
B20 gave an ELISA signal of 70300.
The same measure, in the same setting: under B21 stands 119000; under B22, 27600.

(Values after patent US11932673.)
